The values that follow come from doi:10.1101/2025.08.07.668011.

What all share (assay): high-speed atomic force microscopy
The target of assay [1] is EML4-ALK v3 with the subdomain region (191-217 aa residues) deleted (ddv3) (human) (UniProt Q9UM73).
The target of assay [2] is EML4-ALK variant-5 (v5a, E2:A20) (human) (UniProt Q9UM73).
For assay [3], the target named is EML4-ALK variant-3 (v3b, E6:A20) (human) (UniProt Q9UM73).

Values joined by “and” are separate entries in the source; they are usually repeats but may differ in a detail not shown here. Equal values may be shown once.

Broadly, the stoichiometry N is the number of molecules, sites or subunits per partner or assembly.

On to “EML4-ALK v3 with the subdomain region (191-217 aa residues) deleted (ddv3) (from UniProt Q9UM73 1058-1620) (natural protein)”, for which, in assay [1], the ratio of dimers was determined as 28.1%; the ratio of trimers worked out at 7.3%; the stoichiometry N is 2 and 3.

Regarding “EML4-ALK variant-5 (v5a, E2:A20) (from UniProt Q9UM73 1058-1620) (natural protein)”, in assay [2], the ratio of dimers stood at 29.8%; the ratio of trimers is 10.2%; the stoichiometry N was 2 and 3.

For “EML4-ALK variant-3 (v3b, E6:A20) (from UniProt Q9UM73 1058-1620) (natural protein)”, in assay [3], the ratio of dimers came to 38.5%; the ratio of trimers came to 9.3%; the stoichiometry N was 2 and 3.
